Results reported in publication PMC6331586, “Rapid determination of quaternary protein structures in complex biological samples” (Nature Communications, 2019).

Target: human serum albumin (human, UniProt P02768 25-609)
Assay: cross-linking
Conditions: both partners purified

B1: M1 protein (amino acids 42–484), recombinant (domain or fragment)
chain: NGDGNPREVIEDLAANNPAIQNIRLRYENKDLKARLENAMEVAGRDFKRAEELEKAKQALEDQRKDLETKLKELQQDYDLAKESTSWDRQRLEKELEEKKEALELAIDQASRDYHRATALEKELEEKKKALELAIDQASQDYNRANVLEKELETITREQEINRNLLGNAKLELDQLSSEKEQLTIEKAKLEEEKQISDASRQSLRRDLDASREAKKQVEKDLANLTAELDKVKEDKQISDASRQGLRRDLDASREAKKQVEKDLANLTAELDKVKEEKQISDASRQGLRRDLDASREAKKQVEKALEEANSKLAALEKLNKELEESKKLTEKEKAELQAKLEAEAKALKEQLAKQAEELAKLRAGKASDSQTPDTKPGNKAVPGKGQAPQAGTKPNQNKAPMKETKRQLPSTGETANPFFTAAALTVMATAGVAAVVKRKEEN
notes: source: E. coli BL21 (DE3), purified (fibrinogen column, Ni-coupled Imac Sepharose)
binding result: binds
